The Kd is the constant that tells how readily two partners part at equilibrium. The low end stands for higher affinity, the high end for lower affinity.

Data set [1] deals with the molecule itself. The experiment in a line: native gel or EMSA. (In general: In EMSA bound probe runs differently from free probe, usually more slowly.)
Data set [2] deals with taxol-stabilized microtubules of unlabeled porcine brain tubulin (porcine) (UniProt P02550). Put plainly: co-sedimentation.

B1: SPR2 (38-570)-GFP (domain or fragment, Arabidopsis thaliana, UniProt Q9T041 38-570, looked up)
chain: AMVELKQKILTSISKLADRDTYQIAVEDLEKTIQSLTPETLPMFLNCLYDSCSDPKPAVKKECLHLLSYVCSLHCDSTAAHLTKIIAQIVKRLKDSDSGVRDACRDTIGALSGIYLKGKEEGTNTGSASLAVGLFVKPLFEAMGEQNKVVQSGASMCMARMVESAASPPVTSFQKLCPRICKLLSNSSFLAKASLLPVVSSLSQVGAIAPQSLESLLESIHDCLGSTDWVTRKAAAETLTALASHSSGLIKEKTDSTITVLETCRFDKIKPVRESVTEALQLWKKISGKYVDGASDDSKLSASEQLGSEKNGEKRSNLADLMKKEASDGSTLSPDSASKGKGCFPEKAVGLLKKKAPVLSDKDFNPEFFQRLERRQSVEVVVPRRCKNNDEEESGLDDLNAMGSSNRLKNTQADDKQVKGRFDGNGSQARTSGDDKAGVVNGKETPGHHAPVSNTDNQSEGSFTSNRGNWSAIQRQLLQLERQQTNLMNMLQEFIGGSHDSMVTLEGRVRGLERIVEDMARDLSISSGRRANL
For B1, in data set [1], the binding result was “binds”.

B2: SPR2(1-500)-GFP (domain or fragment)
chain: MSTPTTSGSAAKPTRPARSSSLATRSCSNSGSLTSFQAMVELKQKILTSISKLADRDTYQIAVEDLEKTIQSLTPETLPMFLNCLYDSCSDPKPAVKKECLHLLSYVCSLHCDSTAAHLTKIIAQIVKRLKDSDSGVRDACRDTIGALSGIYLKGKEEGTNTGSASLAVGLFVKPLFEAMGEQNKVVQSGASMCMARMVESAASPPVTSFQKLCPRICKLLSNSSFLAKASLLPVVSSLSQVGAIAPQSLESLLESIHDCLGSTDWVTRKAAAETLTALASHSSGLIKEKTDSTITVLETCRFDKIKPVRESVTEALQLWKKISGKYVDGASDDSKLSASEQLGSEKNGEKRSNLADLMKKEASDGSTLSPDSASKGKGCFPEKAVGLLKKKAPVLSDKDFNPEFFQRLERRQSVEVVVPRRCKNNDEEESGLDDLNAMGSSNRLKNTQADDKQVKGRFDGNGSQARTSGDDKAGVVNGKETPGHHAPVSNTDNQSEGSF
In the case of B2, in data set [2], the Kd was determined as 17.4 µM.

B3: full-length SPR2-GFP protein (natural protein, Arabidopsis thaliana, UniProt Q9T041 1-864, looked up)
chain: MSTPTTSGSAAKPTRPARSSSLATRSCSNSGSLTSFQAMVELKQKILTSISKLADRDTYQIAVEDLEKTIQSLTPETLPMFLNCLYDSCSDPKPAVKKECLHLLSYVCSLHCDSTAAHLTKIIAQIVKRLKDSDSGVRDACRDTIGALSGIYLKGKEEGTNTGSASLAVGLFVKPLFEAMGEQNKVVQSGASMCMARMVESAASPPVTSFQKLCPRICKLLSNSSFLAKASLLPVVSSLSQVGAIAPQSLESLLESIHDCLGSTDWVTRKAAAETLTALASHSSGLIKEKTDSTITVLETCRFDKIKPVRESVTEALQLWKKISGKYVDGASDDSKLSASEQLGSEKNGEKRSNLADLMKKEASDGSTLSPDSASKGKGCFPEKAVGLLKKKAPVLSDKDFNPEFFQRLERRQSVEVVVPRRCKNNDEEESGLDDLNAMGSSNRLKNTQADDKQVKGRFDGNGSQARTSGDDKAGVVNGKETPGHHAPVSNTDNQSEGSFTSNRGNWSAIQRQLLQLERQQTNLMNMLQEFIGGSHDSMVTLEGRVRGLERIVEDMARDLSISSGRRANLTAGFGKYNSFANYPTGKYNGRAPGERGSQTDGAMRGRMWNSDMADDWFIPPHAASRNGQAGPRRSPRSEQYENEHMGNGRRGWDNKASGTIRFGEGPSARSVWQASKDEATLEAIRVAGEDGAVPRPTRVAVAPEAEAMGDDDNEGQERDPIWVSWSNAMHSLRVGDIDAAYAEVLCAGDQHLVIKLMDKTGPSLDQMSNEIANEALNFISQFLLDHSLYDICLSWSQQLLELVLQDGADTFGVPMELKTEILYNLQDACSTMDPPEDWEGPAPEQLVVQLASVWEIDLQQFDK
On to B3, for which, in data set [1], the binding result was “binds”.

B4: SPR2(1-570)-GFP (domain or fragment, Arabidopsis thaliana, UniProt Q9T041 1-570, looked up)
chain: MSTPTTSGSAAKPTRPARSSSLATRSCSNSGSLTSFQAMVELKQKILTSISKLADRDTYQIAVEDLEKTIQSLTPETLPMFLNCLYDSCSDPKPAVKKECLHLLSYVCSLHCDSTAAHLTKIIAQIVKRLKDSDSGVRDACRDTIGALSGIYLKGKEEGTNTGSASLAVGLFVKPLFEAMGEQNKVVQSGASMCMARMVESAASPPVTSFQKLCPRICKLLSNSSFLAKASLLPVVSSLSQVGAIAPQSLESLLESIHDCLGSTDWVTRKAAAETLTALASHSSGLIKEKTDSTITVLETCRFDKIKPVRESVTEALQLWKKISGKYVDGASDDSKLSASEQLGSEKNGEKRSNLADLMKKEASDGSTLSPDSASKGKGCFPEKAVGLLKKKAPVLSDKDFNPEFFQRLERRQSVEVVVPRRCKNNDEEESGLDDLNAMGSSNRLKNTQADDKQVKGRFDGNGSQARTSGDDKAGVVNGKETPGHHAPVSNTDNQSEGSFTSNRGNWSAIQRQLLQLERQQTNLMNMLQEFIGGSHDSMVTLEGRVRGLERIVEDMARDLSISSGRRANL
B4: in data set [1], the binding result is “binds”. In data set [2], the Kd stood at 1.3 µM.

Source of the values: paper doi:10.1101/2021.10.05.463238 (bioRxiv, 2021).
